± gives the uncertainty stated by the source.
B1: TOX high mobility group box family member 3, residues 256 to 323; numbered along this chain, O15405 (parent)
chain: QKPVSAYALFFRDTQAAIKGQNPNATFGEVSKIVASMWDSLGEEQKQVYKRKTEAAKKEYLKALAAYR

Variants of: B1
Assay: abundance fitness (aPCA) (normalised: wild type 0, dead -1); higher = more abundant; growth selection in yeast, the domain comes from the species named
Conditions: Homo sapiens

Variant	abundance fitness
QKPVSAYALFFRDTQAAIKGQNPNWTFGEVSKIVASMWDSLGEEQKQVYKRKTEAAKKEYLKALAAYR	-0.492 ± 0.26
QKPVSAYALFFRDTQAAIKGQNPNYTFGEVSKIVASMWDSLGEEQKQVYKRKTEAAKKEYLKALAAYR	-0.058 ± 0.071
QKPVSAYALFFRDTQAAIKGQNPNAAFGEVSKIVASMWDSLGEEQKQVYKRKTEAAKKEYLKALAAYR	-0.25 ± 0.068
QKPVSAYALFFRDTQAAIKGQNPNACFGEVSKIVASMWDSLGEEQKQVYKRKTEAAKKEYLKALAAYR	-0.275 ± 0.064
QKPVSAYALFFRDTQAAIKGQNPNADFGEVSKIVASMWDSLGEEQKQVYKRKTEAAKKEYLKALAAYR	0.043 ± 0.085
QKPVSAYALFFRDTQAAIKGQNPNAGFGEVSKIVASMWDSLGEEQKQVYKRKTEAAKKEYLKALAAYR	-0.208 ± 0.065
QKPVSAYALFFRDTQAAIKGQNPNAHFGEVSKIVASMWDSLGEEQKQVYKRKTEAAKKEYLKALAAYR	-0.161 ± 0.13
QKPVSAYALFFRDTQAAIKGQNPNAIFGEVSKIVASMWDSLGEEQKQVYKRKTEAAKKEYLKALAAYR	-1.01 ± 0.23
QKPVSAYALFFRDTQAAIKGQNPNALFGEVSKIVASMWDSLGEEQKQVYKRKTEAAKKEYLKALAAYR	-0.544 ± 0.068
QKPVSAYALFFRDTQAAIKGQNPNAMFGEVSKIVASMWDSLGEEQKQVYKRKTEAAKKEYLKALAAYR	-0.862 ± 0.11
QKPVSAYALFFRDTQAAIKGQNPNANFGEVSKIVASMWDSLGEEQKQVYKRKTEAAKKEYLKALAAYR	0.03 ± 0.079
QKPVSAYALFFRDTQAAIKGQNPNAPFGEVSKIVASMWDSLGEEQKQVYKRKTEAAKKEYLKALAAYR	-0.332 ± 0.071
QKPVSAYALFFRDTQAAIKGQNPNAQFGEVSKIVASMWDSLGEEQKQVYKRKTEAAKKEYLKALAAYR	-0.217 ± 0.071
QKPVSAYALFFRDTQAAIKGQNPNARFGEVSKIVASMWDSLGEEQKQVYKRKTEAAKKEYLKALAAYR	-0.266 ± 0.049
QKPVSAYALFFRDTQAAIKGQNPNASFGEVSKIVASMWDSLGEEQKQVYKRKTEAAKKEYLKALAAYR	0.051 ± 0.055
QKPVSAYALFFRDTQAAIKGQNPNAVFGEVSKIVASMWDSLGEEQKQVYKRKTEAAKKEYLKALAAYR	-0.845 ± 0.11
QKPVSAYALFFRDTQAAIKGQNPNAWFGEVSKIVASMWDSLGEEQKQVYKRKTEAAKKEYLKALAAYR	-0.811 ± 0.14
QKPVSAYALFFRDTQAAIKGQNPNAYFGEVSKIVASMWDSLGEEQKQVYKRKTEAAKKEYLKALAAYR	-0.957 ± 0.26
QKPVSAYALFFRDTQAAIKGQNPNATAGEVSKIVASMWDSLGEEQKQVYKRKTEAAKKEYLKALAAYR	0.249 ± 0.057
QKPVSAYALFFRDTQAAIKGQNPNATCGEVSKIVASMWDSLGEEQKQVYKRKTEAAKKEYLKALAAYR	-0.188 ± 0.095

Variant	abundance fitness
QKPVSAYALFFRDTQAAIKGQNPNATDGEVSKIVASMWDSLGEEQKQVYKRKTEAAKKEYLKALAAYR	0.133 ± 0.068
QKPVSAYALFFRDTQAAIKGQNPNATEGEVSKIVASMWDSLGEEQKQVYKRKTEAAKKEYLKALAAYR	0.162 ± 0.072
QKPVSAYALFFRDTQAAIKGQNPNATGGEVSKIVASMWDSLGEEQKQVYKRKTEAAKKEYLKALAAYR	-0.071 ± 0.047
QKPVSAYALFFRDTQAAIKGQNPNATHGEVSKIVASMWDSLGEEQKQVYKRKTEAAKKEYLKALAAYR	0.182 ± 0.094
QKPVSAYALFFRDTQAAIKGQNPNATIGEVSKIVASMWDSLGEEQKQVYKRKTEAAKKEYLKALAAYR	-0.071 ± 0.22
QKPVSAYALFFRDTQAAIKGQNPNATKGEVSKIVASMWDSLGEEQKQVYKRKTEAAKKEYLKALAAYR	0.258 ± 0.061
QKPVSAYALFFRDTQAAIKGQNPNATLGEVSKIVASMWDSLGEEQKQVYKRKTEAAKKEYLKALAAYR	0.051 ± 0.041
QKPVSAYALFFRDTQAAIKGQNPNATNGEVSKIVASMWDSLGEEQKQVYKRKTEAAKKEYLKALAAYR	0.295 ± 0.085
QKPVSAYALFFRDTQAAIKGQNPNATQGEVSKIVASMWDSLGEEQKQVYKRKTEAAKKEYLKALAAYR	0.093 ± 0.079
QKPVSAYALFFRDTQAAIKGQNPNATRGEVSKIVASMWDSLGEEQKQVYKRKTEAAKKEYLKALAAYR	0.077 ± 0.047
QKPVSAYALFFRDTQAAIKGQNPNATSGEVSKIVASMWDSLGEEQKQVYKRKTEAAKKEYLKALAAYR	0.154 ± 0.051
QKPVSAYALFFRDTQAAIKGQNPNATTGEVSKIVASMWDSLGEEQKQVYKRKTEAAKKEYLKALAAYR	0.098 ± 0.069
QKPVSAYALFFRDTQAAIKGQNPNATVGEVSKIVASMWDSLGEEQKQVYKRKTEAAKKEYLKALAAYR	0.004 ± 0.049
QKPVSAYALFFRDTQAAIKGQNPNATWGEVSKIVASMWDSLGEEQKQVYKRKTEAAKKEYLKALAAYR	-0.129 ± 0.053
QKPVSAYALFFRDTQAAIKGQNPNATYGEVSKIVASMWDSLGEEQKQVYKRKTEAAKKEYLKALAAYR	0.029 ± 0.11
QKPVSAYALFFRDTQAAIKGQNPNATFAEVSKIVASMWDSLGEEQKQVYKRKTEAAKKEYLKALAAYR	-0.096 ± 0.065
QKPVSAYALFFRDTQAAIKGQNPNATFCEVSKIVASMWDSLGEEQKQVYKRKTEAAKKEYLKALAAYR	-0.046 ± 0.079
QKPVSAYALFFRDTQAAIKGQNPNATFDEVSKIVASMWDSLGEEQKQVYKRKTEAAKKEYLKALAAYR	0.098 ± 0.083
QKPVSAYALFFRDTQAAIKGQNPNATFEEVSKIVASMWDSLGEEQKQVYKRKTEAAKKEYLKALAAYR	0.175 ± 0.075

From the Human Domainome abundance scans (Beltran et al. 2025)
